Source: article PMC2662861, “An unexpected phosphate binding site in Glyceraldehyde 3-Phosphate Dehydrogenase: Crystal structures of apo, holo and ternary complex of Cryptosporidium parvum enzyme” (BMC Structural Biology, 2009)

Target: the molecule itself
Experiment: crystal structure

| Protein | stoichiometry N |
| --- | --- |
| Cryptosporidium parvum glyceraldehyde 3-phosphate dehydrogenase, wild type (enzyme, glyceraldehyde 3-phosphate dehydrogenase of Cryptosporidium parvum; Homotetramer; Crystallised as apoenzyme and, after incubation with 2 mM NAD, as holoenzyme; also called CpGAPDH; C. parvum GAPDH; source: E. coli, purified (Ni-NTA, SP Sepharose cation exchange, Superdex 200); not shown: His6, N-terminal, kept) MTATLGINGFGRIGRLVLRACMERNDITVVAINDPFMDVEYMAYLLKYDSVHGNFNGTVEVSGKDLCINGKVVKVFQAKDPAEIPWGASGAQIVCESTGVFTTEEKASLHLKGGAKKVIISAPPKDNVPMYVMGVNNTEYDPSKFNVISNASCTTNCLAPLAKIINDKFGIVEGLMTTVHSLTANQLTVDGPSKGGKDWRAGRCAGNNIIPASTGAAKAVGKVIPALNGKLTGMAIRVPTPDVSVVDLTCKLAKPASIEEIYQAVKEASNGPMKGIMGYTSDDVVSTDFIGCKYSSIFDKNACIALNDSFVKLISWYDNESGYSNRLVDLAVYVASRGL | 4 |
| Cryptosporidium parvum glyceraldehyde 3-phosphate dehydrogenase, C153S active site mutant (enzyme, also called C153S mutant CpGAPDH; C153S CpGAPDH; source: E. coli, purified (Ni-NTA, SP Sepharose cation exchange, Superdex 200); not shown: His6, N-terminal, kept) MTATLGINGFGRIGRLVLRACMERNDITVVAINDPFMDVEYMAYLLKYDSVHGNFNGTVEVSGKDLCINGKVVKVFQAKDPAEIPWGASGAQIVCESTGVFTTEEKASLHLKGGAKKVIISAPPKDNVPMYVMGVNNTEYDPSKFNVISNASSTTNCLAPLAKIINDKFGIVEGLMTTVHSLTANQLTVDGPSKGGKDWRAGRCAGNNIIPASTGAAKAVGKVIPALNGKLTGMAIRVPTPDVSVVDLTCKLAKPASIEEIYQAVKEASNGPMKGIMGYTSDDVVSTDFIGCKYSSIFDKNACIALNDSFVKLISWYDNESGYSNRLVDLAVYVASRGL | 4 |
